Test results: the supplement of paper PMC10126150
± gives the standard deviation of the averaged measurements.
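Also: ATP exposure 15 min at 22 °C before imaging.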

The sequences below were run on ATP (assay: switch fluorescence ratio, 500 uM ATP over buffer (Cy3 cluster intensity, sum of 5 cycles each) (fold (ratio)); higher = stronger signal-on switching upon ATP binding; sequences stand for … in TCGTCGGCAGCGTCAGATGTGTATAAGAGACAGTTTTTTTTTTTTTTTTTTTTTTTTT…TC). Conditions: aptamer strand: ATP DNA aptamer (quencher-CACCTGGGGGAGTATTGCGGAGGAAGG + anchor), 100 nM annealed; ATP concentration: 500 uM.
Method in brief: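 Clusters carrying Cy3-labelled switching strands on a modified Illumina MiSeq flow-cell were annealed to 100 nM quencher-labelled ATP aptamer and imaged in selection buffer. They were imaged again after 15 min with 500 uM ATP at 22 °C, over five buffer/ATP cycles with NaOH stripping and re-annealing in between. For each cluster, the fluorescence ratio is the summed Cy3 intensity of the target cycles divided by that of the buffer cycles, averaged per switch-domain sequence. Clusters outside 100-1000 RFU were left out.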
Work on CGGGGTGGTA yielded a switch fluorescence ratio of 0.9873 ± 0.0069. ACGGTAAGTG gave a switch fluorescence ratio of 1.02 ± 0.042. GAGTTTGTCC was tested, and the switch fluorescence ratio was 0.998 ± 0.012. ACTTTTAGGT showed a switch fluorescence ratio of 1.0193 ± 0.00024. For CTAACAGGGG, the switch fluorescence ratio was 1.426 ± 0.0043. TATAGTTGTT showed a switch fluorescence ratio of 0.992 ± 0.018. With TAACCCCGCT the switch fluorescence ratio was 1.42 ± 0.25. TTAATTAAAC gave a switch fluorescence ratio of 1.013 ± 0.0035. With TCGCGGCAGT the switch fluorescence ratio was 1.04 ± 0.015. ATGAAAACGT showed a switch fluorescence ratio of 1 ± 0.014. GGGGATTTAG was tested, and the switch fluorescence ratio was 0.971 ± 0.027. For ATAAATTTTT, the switch fluorescence ratio was 1.01 ± 0.023. TGCTGGGGGT was tested, and the switch fluorescence ratio was 1.03 ± 0.068. TCGGCAGGGG gave a switch fluorescence ratio of 1.09 ± 0.035. In the case of AGTCTAGAGA, the switch fluorescence ratio is reported as 1.015 ± 0.0095. AAGTCCGTTT was tested, and the switch fluorescence ratio was 1.02 ± 0.044. GAAAGGAATG gave a switch fluorescence ratio of 1.041 ± 0.007. Sequence AAATTAAAGG has a switch fluorescence ratio of 1 ± 0.013. GCATTGGGGG gave a switch fluorescence ratio of 0.995 ± 0.041. In the case of GAATTATTGT, the switch fluorescence ratio is reported as 0.959 ± 0.022. TCATGGGTGG showed a switch fluorescence ratio of 0.99 ± 0.02. TCGCGATCAG gave a switch fluorescence ratio of 1.12 ± 0.042. AATGGATTGG gave a switch fluorescence ratio of 0.997 ± 0.018. GGCCATCTGG showed a switch fluorescence ratio of 1.04 ± 0.026. In the case of GCTCATGGTT, the switch fluorescence ratio is reported as 1.03 ± 0.046. TTATGGTCTG showed a switch fluorescence ratio of 0.984 ± 0.038. GGCTGAAGAG showed a switch fluorescence ratio of 1.02 ± 0.033. With TGAGAACGCA the switch fluorescence ratio was 1.2 ± 0.054. Work on ACTTTTAAGG yielded a switch fluorescence ratio of 0.983 ± 0.024. With TTCTATATGT the switch fluorescence ratio was 0.977 ± 0.027. Work on CCAGCTTTTT yielded a switch fluorescence ratio of 0.957 ± 0.054. With TTACGGCAGG the switch fluorescence ratio was 1.13 ± 0.092. In the case of AGAAACCGTA, the switch fluorescence ratio is reported as 1.1 ± 0.031. For CGTATGAATA, the switch fluorescence ratio was 0.984 ± 0.011. With CGATGGATGG the switch fluorescence ratio was 1.01 ± 0.037. For TTTAATATCT, the switch fluorescence ratio was 0.998 ± 0.015. With CTGAGGTGGT the switch fluorescence ratio was 0.991 ± 0.046. For GATAGTTTTG, the switch fluorescence ratio was 0.9856 ± 0.0089. For AATGTAAAAC, the switch fluorescence ratio was 1.06 ± 0.066. AAGTTATTGT was tested, and the switch fluorescence ratio was 1.21 ± 0.33. ATGGATTGCA was tested, and the switch fluorescence ratio was 0.994 ± 0.023. For ATAAGTGATG, the switch fluorescence ratio was 0.995 ± 0.025. With GGGTTAGAAG the switch fluorescence ratio was 0.9797 ± 0.008. With GAGGAGAACG the switch fluorescence ratio was 0.949 ± 0.049. ATCTATTGTG gave a switch fluorescence ratio of 0.974 ± 0.013. For TGTTTGTGGC, the switch fluorescence ratio was 1.12 ± 0.16. With ACCGTGTCAA the switch fluorescence ratio was 1.01 ± 0.032. TGTTTATGAG showed a switch fluorescence ratio of 0.9849 ± 0.0034. TCTTGGGCCG showed a switch fluorescence ratio of 1.03 ± 0.061. AATTTGAGCC showed a switch fluorescence ratio of 0.965 ± 0.039. For TTAAGTGGTT, the switch fluorescence ratio was 0.998 ± 0.011. TAACACCGGC was tested, and the switch fluorescence ratio was 1.06 ± 0.025. For AGACTCTCG, the switch fluorescence ratio was 1.02 ± 0.098. Sequence TAATTGCTCG has a switch fluorescence ratio of 1.062 ± 0.0041. GAGACTAGAT showed a switch fluorescence ratio of 1.01 ± 0.017. For GCTCAGTTTG, the switch fluorescence ratio was 0.992 ± 0.013. Sequence GCTGTTTGAT has a switch fluorescence ratio of 0.959 ± 0.04. Work on AGATTTGAGC yielded a switch fluorescence ratio of 0.972 ± 0.035. GTGATCAAGC was tested, and the switch fluorescence ratio was 0.984 ± 0.028. CGCGGGCACT gave a switch fluorescence ratio of 1.04 ± 0.04. With CCTTCAGAGG the switch fluorescence ratio was 1.12 ± 0.033. For TGCTGAATCT, the switch fluorescence ratio was 0.996 ± 0.046. Sequence GGATGGATGG has a switch fluorescence ratio of 0.993 ± 0.082. CTGGTTCACC showed a switch fluorescence ratio of 0.99 ± 0.013. Work on TGTTGTAGCT yielded a switch fluorescence ratio of 1.02 ± 0.031. Work on AGTCGAGGGG yielded a switch fluorescence ratio of 1.01 ± 0.02. ATTCCAGACG gave a switch fluorescence ratio of 1.01 ± 0.024. Sequence TAGGGGGCTA has a switch fluorescence ratio of 0.995 ± 0.027. In the case of ATAAGGGGAT, the switch fluorescence ratio is reported as 0.983 ± 0.023. ACTCGTAACT showed a switch fluorescence ratio of 0.9931 ± 0.0057. For TATGGGAATG, the switch fluorescence ratio was 1.019 ± 0.0021. AATACCAAAT showed a switch fluorescence ratio of 0.999 ± 0.049. In the case of AGAGGCGAGG, the switch fluorescence ratio is reported as 0.9913 ± 0.0013. With TTAATGGGA the switch fluorescence ratio was 0.995 ± 0.011. Work on TGATGGGCAT yielded a switch fluorescence ratio of 1.01 ± 0.018. For TTGCGACGCT, the switch fluorescence ratio was 1.17 ± 0.13. In the case of TATGGAGGAT, the switch fluorescence ratio is reported as 1.09 ± 0.13. With CGGTCTAATT the switch fluorescence ratio was 0.9989 ± 0.0027. With GAAATTGGGT the switch fluorescence ratio was 0.981 ± 0.018. Sequence GGGTTTGGTG has a switch fluorescence ratio of 0.987 ± 0.02. GGGCCATGTA gave a switch fluorescence ratio of 1 ± 0.034. TAAGGGTTTC was tested, and the switch fluorescence ratio was 1.02 ± 0.066. For CAGAGGTAGG, the switch fluorescence ratio was 0.973 ± 0.023. ACTAAGGGGA was tested, and the switch fluorescence ratio was 1.03 ± 0.0058. GGATAAGGAA was tested, and the switch fluorescence ratio was 0.9698 ± 0.0076. GGGGGGAGTG gave a switch fluorescence ratio of 0.975 ± 0.029. TAAGGGTGTG gave a switch fluorescence ratio of 1 ± 0.023. With CGGGGTAGCG the switch fluorescence ratio was 0.965 ± 0.013. AGTATATGCC showed a switch fluorescence ratio of 1 ± 0.034. Sequence GGATAGGGCG has a switch fluorescence ratio of 0.946 ± 0.1. Work on GCTATTAAGT yielded a switch fluorescence ratio of 0.9695 ± 0.003. Sequence GACGTTATGT has a switch fluorescence ratio of 1 ± 0.019. Sequence GCCAACCACT has a switch fluorescence ratio of 1.03 ± 0.025. TGTTCTTAAG gave a switch fluorescence ratio of 0.975 ± 0.022. Sequence TACTCGGATT has a switch fluorescence ratio of 0.996 ± 0.015. Sequence GTTTTGGTAT has a switch fluorescence ratio of 1.01 ± 0.0052. For AACATAGGTG, the switch fluorescence ratio was 1.14 ± 0.056. For ATTTCTTGG, the switch fluorescence ratio was 0.958 ± 0.031. Work on AGGGCAGCTT yielded a switch fluorescence ratio of 1.06 ± 0.025. With AAATATCTCT the switch fluorescence ratio was 0.982 ± 0.048.
